This is an account of results in publication PMC11863921 (BMC Biology, 2025).

In assay [1] the target is Acanthaster cf. solaris relaxin family peptide receptor/leucine-rich repeat G protein-coupled receptor 3, N-terminally modified (prolactin signal peptide, FLAG tag) (Acanthaster cf. solaris).
The target of assay [2] is modified ArubRXFP/LGR3 (N-terminal region with the predicted internal signal peptide replaced by the prolactin precursor signal peptide) (Asterias rubens).
In assay [3] the target is Asterias rubens relaxin family peptide receptor/leucine-rich repeat G protein-coupled receptor 3 (isoform X2) (Asterias rubens).
The subject of assay [4] is ovarian fragments of A. cf. solaris. Put plainly: In vitro spawning assay with ovarian fragments of A. cf. solaris. The following applies: 1 h, semi-quantitative. From the text: Adult A. cf. solaris were collected from the Great Barrier Reef by Pacific Marine Group divers associated with the Great Barrier Reef Marine Park Authority (GBRMPA) before being transported to the University of the Sunshine Coast aquarium facility. Animals were briefly maintained in a re-circulating protein-skimmed and aerated saltwater system of approximately 1500 L. The animals used were approximately 25–55 cm in diameter and kept unfed for the duration of the experiment. The gender and ovarian maturation stage was determined by using a minor gonad tissue biopsy technique and, thereafter, animals were individually segregated in a flowthrough aerated tank filled with approximately 55 L of filtered seawater for a minimum of 24 h to recover and acclimatize.
AsoRGP1 and AsoRGP2 were synthesized as described previously. In addition, a modified form of AsoRGP2 was synthesized in which the N-terminal residue of the A-chain (glutamine, Q) was substituted with pyroglutamate (pQ), recognizing the possibility of this potential post-translational modification. […] In vitro spawning assays using ovarian fragments were performed following procedures described previously. In brief, the ovaries were excised and cut using scissors into small fragments containing only a few lobes. The ovarian fragments were then incubated in artificial seawater containing RGP-type peptides at a range of concentrations (2 × 10^−10–2 × 10^−6 M) for 1 h. As a control experiment, ovarian fragments were incubated in artificial seawater alone. The samples were examined to determine whether or not in vitro spawning had occurred and were scored as follows: (+ + +) spawning occurred and most oocytes had matured; (+ +) about 50% of oocytes had matured, ( +) a few oocytes had matured and ( −): no spawning occurred. […] Means ± standard error of mean (SEM) were determined from four separate assays using ovaries from four different animals.

The next assay addresses T1, AsolRXFP/LGR3 (Acanthaster planci, UniProt A0A8B7XXQ8).
T1 sequence (A0A8B7XXQ8 1-847): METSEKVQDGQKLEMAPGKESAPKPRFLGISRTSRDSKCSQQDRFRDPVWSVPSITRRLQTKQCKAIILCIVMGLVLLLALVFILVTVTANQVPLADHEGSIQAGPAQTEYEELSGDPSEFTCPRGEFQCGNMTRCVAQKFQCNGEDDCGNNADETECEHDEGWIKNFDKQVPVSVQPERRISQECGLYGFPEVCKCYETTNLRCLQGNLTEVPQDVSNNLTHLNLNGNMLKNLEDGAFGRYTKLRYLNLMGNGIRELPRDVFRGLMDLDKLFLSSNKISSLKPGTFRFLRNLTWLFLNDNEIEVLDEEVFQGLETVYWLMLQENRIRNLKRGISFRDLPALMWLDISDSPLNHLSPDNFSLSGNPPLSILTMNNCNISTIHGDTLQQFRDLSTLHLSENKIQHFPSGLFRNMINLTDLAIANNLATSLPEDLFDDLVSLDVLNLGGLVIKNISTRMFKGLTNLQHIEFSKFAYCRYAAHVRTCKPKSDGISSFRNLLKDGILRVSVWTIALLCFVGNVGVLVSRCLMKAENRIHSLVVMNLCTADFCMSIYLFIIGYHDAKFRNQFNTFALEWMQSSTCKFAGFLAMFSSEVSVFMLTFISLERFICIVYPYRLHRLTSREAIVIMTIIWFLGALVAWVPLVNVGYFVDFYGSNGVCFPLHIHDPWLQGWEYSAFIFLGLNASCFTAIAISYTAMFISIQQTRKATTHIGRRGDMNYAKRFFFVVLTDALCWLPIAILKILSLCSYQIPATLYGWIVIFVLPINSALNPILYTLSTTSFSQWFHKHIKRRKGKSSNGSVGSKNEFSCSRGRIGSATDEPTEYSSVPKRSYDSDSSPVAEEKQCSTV
In words: CRE reporter gene assay in CHO cells stably expressing AsolRXFP/LGR3. It is filed as cell-based, A. cf. solaris. The following applies: CHO-AsolRXFP/LGR3 cells, increasing concentrations. As to the method: Human embryonic kidney (HEK) 293T cells were grown in complete Dulbecco’s modified Eagle medium (DMEM; Gibco) and Chinese hamster ovary (CHO) cells in complete DMEM/F12 (Gibco). Media was supplemented with 10% fetal bovine serum, 1% penicillin/streptomycin, and 1% L‐glutamine (complete media; All from Gibco). HEK-293T cells were transfected with LipofectAMINE 2000 (Invitrogen) and CHO cells with CHO TransIT and CHO-Mojo (Mirus), both according to the manufacturer’s instructions.
CHO and HEK293T cells stably expressing AsolRXFP/LGR3 were generated by lentiviral transduction. HEK293T cells were plated in 10 cm dishes for transfection with pLenti X1-Ef1α-COT-RXFP-like 2-IRES-GFP along with the lentiviral packaging and envelope plasmids pMDL, pRSV‐Rev, and pCMV‐VSV‐G, using Lipofectamine 2000. The following day, media containing lentivirus was harvested and filtered through a 0.45 μm syringe filter. Fresh CHO and HEK293T cells in 10 cm plates were transduced by replacing the cell culture media with the filtered media containing lentivirus, mixed with 4 μg/mL hexadimethrine bromide (Polybrene) to increase transduction efficiency. Three rounds of transduction were performed over 32 h, before cells were allowed to recover for three days in complete media. Transduced cells were sorted from non-transduced cells using the GFP reporter by fluorescence-activated cell sorting (FACS), using a Becton Dickinson FACSAria III as previously described. Single, live cells with low GFP expression were selected to represent low AsolRXFP/LGR3 expression and were subsequently grown to confluency in a T175 flask and cryopreserved.
The ability of the A. cf. solaris receptors to respond to A. cf. solaris RGP1 and RGP2 peptides was tested using a pCRE β-galactosidase reporter gene assay in CHO cells stably expressing AsolRXFP/LGR3 or HEK-293T cells transfected with AsolRXFP/LGR4 (long) or AsolRXFP/LGR4 (short), as described in detail previously. Importantly, the pCRE β-galactosidase reporter gene assay measures both Gs and Gq activation downstream of GPCR activation by monitoring CREB-mediated gene transcription. Cells were seeded in 96 well plates and were left to grow overnight at 37 °C in an incubator with 5% CO2. The next day the cells were transfected with different amounts of the pCRE reporter gene DNA [57] and/or pcDNA3.1 receptor constructs, as described above, and were left to grow overnight in an incubator. Triplicate wells in each plate were transfected with the equivalent amount of pCRE reporter gene DNA and pcDNA3.1 without a receptor-encoding insert as the background CRE activity control. The next day cells were exposed in triplicate wells to increasing concentrations of peptides diluted in media for 6 h at 37 °C in an incubator. Triplicate parallel wells contained 5 µM forskolin and blank media as positive and negative controls, respectively. At the end of the incubation period, the media was aspirated, and the plate was stored at − 80 °C until development. Plates were thawed for the development of β-galactosidase activity, as described previously, with absorbance being read at 570 nm on an Epoch 2 microplate reader. The data were analyzed as the percentage of the response induced by 5 µM forskolin and pooled followed by fitting to a three-parameter sigmoidal dose–response curve using GraphPad Prism 10. Experiments were performed at least three times with triplicate determinations in each assay (Additional file 17: Dataset S10).
In general terms: A reporter such as luciferase makes a cellular process visible.

“Acanthaster cf. solaris relaxin-like gonad-stimulating peptide 1 (ligand)”: in assay [1], the pEC50 of CRE reporter gene activation in CHO-AsolRXFP/LGR3 cells was 7.8 pEC50 and the potency (EC50) of CRE reporter gene activation in CHO-AsolRXFP/LGR3 cells amounted to 16 nM.
Consider “Asterias rubens relaxin-like gonad-stimulating peptide 2 (ligand)”, for which the EC50 of peptide-induced luminescence (GFP-apoaequorin G5A, chimeric G-protein GqS5) in CHO-K1 cells transfected with modified ArubRXFP/LGR3 in assay [2] is 510 nM. The substance further yielded an EC50 of peptide-induced luminescence (GFP-apoaequorin G5A, chimeric G-protein GqS5) in CHO-K1 cells transfected with ArubRXFP/LGR3, 10^-14 to 10^-5 M in assay [3] of 383 nM.
Take “Acanthaster cf. solaris Relaxin-like gonad-stimulating peptide 2 modified with pyroglutamate replacing glutamine at the N-terminus of the A-chain [Asol-pQ-RGP2]”: the “relative potency in inducing shedding of mature eggs / spawning” value in assay [4] (compared with RGP1 or unmodified RGP2) was “less potent than AsolRGP1 and AsolRGP2”; in assay [4] (compared with RGP1 or unmodified RGP2, listed as Asol-pQ-RGP), “less potent than unmodified AsolRGP2”.
On to “recombinant human relaxin-2 [H2 relaxin, reference compound]”, for which, at AsolRXFP/LGR3, the “cAMP activity / CRE reporter gene activation” value is “No response”.
